Biological target: tetramethylrhodamine-labeled microtubule (tubulin purified from bovine brain) (bovine) (UniProt Q6B856)
Test: fluorescence microscopy of kinesin-coated beads binding to a single microtubule

average binding frequency: 0.018 μm^−1 s^−1
koff: 0.004 s⁻¹
Substance: native kinesin purified from bovine brain (complex)

— publication PMC2171822
